B1: E3 ubiquitin-protein ligase MARCHF5 (Homo sapiens), Q9NX47 (parent)
chain: MPDQALQQMLDRSCWVCFATDEDDRTAEWVRPCRCRGSTKWVHQACLQRWVDEKQRGNSTARVACPQCNAEYLIVFPKLGPVVYVLDLADRLISKACPFAAAGIMVGSIYWTAVTYGAVTVMQVVGHKEGLDVMERADPLFLLIGLPTIPVMLILGKMIRWEDYVLRLWRKYSNKLQILNSIFPGIGCPVPRIPAEANPLADHVSATRILCGALVFPTIATIVGKLMFSSVNSNLQRTILGGIAFVAIKGAFKVYFKQQQYLRQAHRKILNYPEQEEA
partner: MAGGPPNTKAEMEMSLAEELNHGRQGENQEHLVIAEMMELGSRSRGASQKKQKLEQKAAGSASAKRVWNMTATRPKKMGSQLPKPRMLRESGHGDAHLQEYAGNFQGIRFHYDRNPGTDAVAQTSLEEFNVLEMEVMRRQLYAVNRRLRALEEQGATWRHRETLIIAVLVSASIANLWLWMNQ
B2: Protein LDOC1 (Homo sapiens), O95751 (parent)
chain: MVDELVLLLHALLMRHRALSIENSQLMEQLRLLVCERASLLRQVRPPSCPVPFPETFNGESSRLPEFIVQTASYMLVNENRFCNDAMKVAFLISLLTGEAEEWVVPYIEMDSPILGDYRAFLDEMKQCFGWDDDEDDDDEEEEDDY
partner: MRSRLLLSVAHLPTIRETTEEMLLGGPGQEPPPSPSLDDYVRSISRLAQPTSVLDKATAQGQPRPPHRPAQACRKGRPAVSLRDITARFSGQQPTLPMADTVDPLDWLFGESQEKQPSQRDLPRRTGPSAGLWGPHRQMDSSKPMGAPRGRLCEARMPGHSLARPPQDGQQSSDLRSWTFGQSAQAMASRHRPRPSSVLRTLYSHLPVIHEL
B3: Phosphatidylserine lipase ABHD16A (Homo sapiens), O95870 (parent)
chain: MAKLLSCVLGPRLYKIYRERDSERAPASVPETPTAVTAPHSSSWDTYYQPRALEKHADSILALASVFWSISYYSSPFAFFYLYRKGYLSLSKVVPFSHYAGTLLLLLAGVACLRGIGRWTNPQYRQFITILEATHRNQSSENKRQLANYNFDFRSWPVDFHWEEPSSRKESRGGPSRRGVALLRPEPLHRGTADTLLNRVKKLPCQITSYLVAHTLGRRMLYPGSVYLLQKALMPVLLQGQARLVEECNGRRAKLLACDGNEIDTMFVDRRGTAEPQGQKLVICCEGNAGFYEVGCVSTPLEAGYSVLGWNHPGFAGSTGVPFPQNEANAMDVVVQFAIHRLGFQPQDIIIYAWSIGGFTATWAAMSYPDVSAMILDASFDDLVPLALKVMPDSWRGLVTRTVRQHLNLNNAEQLCRYQGPVLLIRRTKDEIITTTVPEDIMSNRGNDLLLKLLQHRYPRVMAEEGLRVVRQWLEASSQLEEASIYSRWEVEEDWCLSVLRSYQAEHGPDFPWSVGEDMSADGRRQLALFLARKHLHNFEATHCTPLPAQNFQMPWHL
partner: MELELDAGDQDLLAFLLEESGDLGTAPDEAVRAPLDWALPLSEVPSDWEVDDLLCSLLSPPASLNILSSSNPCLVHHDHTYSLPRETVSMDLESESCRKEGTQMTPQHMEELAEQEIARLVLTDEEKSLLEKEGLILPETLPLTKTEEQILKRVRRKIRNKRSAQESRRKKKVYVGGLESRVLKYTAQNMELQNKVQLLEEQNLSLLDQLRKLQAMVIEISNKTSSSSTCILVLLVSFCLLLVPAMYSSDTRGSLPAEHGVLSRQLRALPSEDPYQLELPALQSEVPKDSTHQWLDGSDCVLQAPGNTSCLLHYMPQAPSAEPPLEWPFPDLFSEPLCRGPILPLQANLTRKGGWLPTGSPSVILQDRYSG
B4: TBC1 domain family member 5 (Homo sapiens), Q92609 (parent)
chain: MYHSLSETRHPLQPEEQEVGIDPLSSYSNKSGGDSNKNGRRTSSTLDSEGTFNSYRKEWEELFVNNNYLATIRQKGINGQLRSSRFRSICWKLFLCVLPQDKSQWISRIEELRAWYSNIKEIHITNPRKVVGQQDLMINNPLSQDEGSLWNKFFQDKELRSMIEQDVKRTFPEMQFFQQENVRKILTDVLFCYARENEQLLYKQGMHELLAPIVFVLHCDHQAFLHASESAQPSEEMKTVLNPEYLEHDAYAVFSQLMETAEPWFSTFEHDGQKGKETLMTPIPFARPQDLGPTIAIVTKVNQIQDHLLKKHDIELYMHLNRLEIAPQIYGLRWVRLLFGREFPLQDLLVVWDALFADGLSLGLVDYIFVAMLLYIRDALISSNYQTCLGLLMHYPFIGDVHSLILKALFLRDPKRNPRPVTYQFHPNLDYYKARGADLMNKSRTNAKGAPLNINKVSNSLINFGRKLISPAMAPGSAGGPVPGGNSSSSSSVVIPTRTSAEAPSHHLQQQQQQQRLMKSESMPVQLNKGLSSKNISSSPSVESLPGGREFTGSPPSSATKKDSFFSNISRSRSHSKTMGRKESEEELEAQISFLQGQLNDLDAMCKYCAKVMDTHLVNIQDVILQENLEKEDQILVSLAGLKQIKDILKGSLRFNQSQLEAEENEQITIADNHYCSSGQGQGRGQGQSVQMSGAIKQASSETPGCTDRGNSDDFILISKDDDGSSARGSFSGQAQPLRTLRSTSGKSQAPVCSPLVFSDPLMGPASASSSNPSSSPDDDSSKDSGFTIVSPLDI
B5: SKA complex subunit 1 (Homo sapiens), Q96BD8 (parent)
chain: MASSDLEQLCSHVNEKIGNIKKTLSLRNCGQEPTLKTVLNKIGDEIIVINELLNKLELEIQYQEQTNNSLKELCESLEEDYKDIEHLKENVPSHLPQVTVTQSCVKGSDLDPEEPIKVEEPEPVKKPPKEQRSIKEMPFITCDEFNGVPSYMKSRLTYNQINDVIKEINKAVISKYKILHQPKKSMNSVTRNLYHRFIDEETKDTKGRYFIVEADIKEFTTLKADKKFHVLLNILRHCRRLSEVRGGGLTRYVIT
partner: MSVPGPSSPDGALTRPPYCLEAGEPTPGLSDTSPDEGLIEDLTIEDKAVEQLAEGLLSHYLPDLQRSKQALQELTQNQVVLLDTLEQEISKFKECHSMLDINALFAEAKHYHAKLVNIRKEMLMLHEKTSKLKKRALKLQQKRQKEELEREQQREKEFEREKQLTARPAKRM

Variants of: B1
Details: with fate1_human FATE1, Q969F0

Variant	effect of a mutation on the interaction
D202N	with no effect

Variants of: B2
Details: with depp1_human DEPP1, Q9NTK1

Variant	effect of a mutation on the interaction
L12H	disrupting interaction strength

Variants of: B3
Details: with creb3_human CREB3, O43889

Variant	effect of a mutation on the interaction
R184L	with no effect

Variants of: B4
Details: with ap2m1_human AP2M1, Q96CW1
Chain of ap2m1_human AP2M1, Q96CW1 (Q96CW1 whole entry): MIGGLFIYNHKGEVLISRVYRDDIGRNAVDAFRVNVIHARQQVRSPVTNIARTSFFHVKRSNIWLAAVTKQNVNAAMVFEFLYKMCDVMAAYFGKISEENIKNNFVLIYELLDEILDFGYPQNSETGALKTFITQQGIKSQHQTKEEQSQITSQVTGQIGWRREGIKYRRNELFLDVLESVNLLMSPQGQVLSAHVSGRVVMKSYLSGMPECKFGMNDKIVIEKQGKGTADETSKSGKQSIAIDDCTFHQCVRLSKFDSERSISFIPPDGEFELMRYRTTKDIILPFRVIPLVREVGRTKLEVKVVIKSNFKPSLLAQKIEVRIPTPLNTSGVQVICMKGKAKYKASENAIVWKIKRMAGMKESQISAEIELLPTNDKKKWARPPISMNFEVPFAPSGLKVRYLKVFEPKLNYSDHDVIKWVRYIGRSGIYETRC

Variant	effect of a mutation on the interaction
Y375C	with no effect

Variants of: B5
Details: with bl1s6_human BLOC1S6, Q9UL45

Variant	effect of a mutation on the interaction
H86R	with no effect
